Source: US20220195023A1
“And” between values parts separate entries of the source, which are not always exact repeats. Equal entries are not always repeated.

Columns and labels:
[1] = target: (NVDP)3(NANP)2 (Plasmodium falciparum); experiment: BLI, target on sensor
[2] = target: … (Plasmodium falciparum); experiment: BLI, target on sensor
[3] = target: NANPNVDP (Plasmodium falciparum); experiment: BLI, target on sensor
[4] = target: (NANP)6 (Plasmodium falciparum); experiment: BLI, target on sensor
[5] = target: (NPNA)3 (Plasmodium falciparum); experiment: BLI, target on sensor
[6] = target: (NVDP)3(NANP)2 (Plasmodium falciparum); experiment: SPR, antibody on chip
[7] = target: … (Plasmodium falciparum); experiment: SPR, antibody on chip
[8] = target: (NANP)6 (Plasmodium falciparum); experiment: SPR, antibody on chip
[9] = target: (NPNA)3 (Plasmodium falciparum); experiment: SPR, antibody on chip

| Binder | Kd [1] | Kd [2] | Kd [3] | Kd [4] | Kd [5] | Kd [6] | Kd [7] | Kd [8] | Kd [9] |
| --- | --- | --- | --- | --- | --- | --- | --- | --- | --- |
| AB-000317 (antibody, V domains shown) VH: QMQLVESGGGVVQPGRSLRLSCTASGFTFSTYAMHWVRQSPGQGLQWVAVISYHSTNKYYEDSVRGRFTISRDNSKNTLYLQMNSLRAEDTAVYYCARDGYSSSFFDFWGQGTLVTVSS VL: DIQMTQSPSTLSASVGDRVAITCRASQSISRWLAWYQQQPGKAPKLLMSGASVLESGVPSRFSGSGSGTEFTLTISSLQPDDFATYYCQHYNSYFVTFGQGTKVEIK | 4.27 nM and 3.73 nM | 2.76 nM and 2.51 nM | 9.2 nM and 12.7 nM | 0.714 nM and 1.38 nM | 0.18 nM and 0.8 nM | 2590 nM and 2910 nM | 12900 nM and 15800 nM | 1.75 nM and 0.817 nM | 4.91 nM and 11.2 nM |
| AB-007056 (antibody, V domains shown) VH: QMQLVESGGGVVQPGRSLRLSCTASGFTFSTYAMHWVRQSPGQGLQWVAVISYHSTNKYYEDSVRGRFTISRDNSKNTLYLQMNSLRAEDTAVYYCARDGYQSSFFDFWGQGTLVTVSS VL: DIQMTQSPSTLSASVGDRVAITCRASQSISRWLAWYQQQPGKAPKLLMSGASVLESGVPSRFSGSGSGTEFTLTISSLQPDDFATYYCQHYNSYFVTFGQGTKVEIK | 24.9 nM | 23.6 nM | 29.6 nM | 0.88 nM | 0.263 nM |  |  | 0.104 nM | 62 nM |
| AB-007060 (antibody, V domains shown) VH: QMQLVESGGGVVQPGRSLRLSCTASGFTFSTYAMHWVRQSPGQGLQWVAVISYHSTNKYYEDSVRGRFTISRDNSKNTLYLQMNSLRAEDTAVYYCARDGYSSSYFDFWGQGTLVTVSS VL: DIQMTQSPSTLSASVGDRVAITCRASQSISRWLAWYQQQPGKAPKLLMSGASVLESGVPSRFSGSGSGTEFTLTISSLQPDDFATYYCQHYNSYFVTFGQGTKVEIK | 45.2 nM | 43.2 nM |  | 0.898 nM | 1.14 nM |  |  | 1.21 nM | 212 nM |
| AB-007053 (antibody, V domains shown) VH: QMQLVESGGGVVQPGRSLRLSCTASGFTFSTYAMHWVRQSPGQGLQWVAVISYHSTQKYYEDSVRGRFTISRDNSKNTLYLQMNSLRAEDTAVYYCARDGYSSSFFDFWGQGTLVTVSS VL: DIQMTQSPSTLSASVGDRVAITCRASQSISRWLAWYQQQPGKAPKLLMSGASVLESGVPSRFSGSGSGTEFTLTISSLQPDDFATYYCQHYNSYFVTFGQGTKVEIK | 25.8 nM | 23.5 nM | 24.7 nM | 1.37 nM | 0.552 nM |  |  | 1.42 nM | 112 nM |
| AB-007064 (antibody, V domains shown) VH: QMQLVESGGGVVQPGRSLRLSCTASGFTFSTYAMHWVRQSPGQGLQWVAVISYHSTNKYYEDSVRGRFTISRDNSKNTLYLQMNSLRAEDTAVYYCARDGYSSSFFDFWGQGTLVTVSS VL: DIQMTQSPSTLSASVGDRVAITCRASQSISRWLAWYQQQPGKAPKLLMTGASVLESGVPSRFSGSGSGTEFTLTISSLQPDDFATYYCQHYNSYFVTFGQGTKVEIK | 33.7 nM | 30.9 nM | 36.7 nM | 0.434 nM | 0.453 nM |  |  | 0.192 nM | 152 nM |
| AB-007045 (antibody, V domains shown) VH: QMQLVESGGGVVQPGRSLRLSCTASGFTFSTYAMHWVRQSPGQGLQWVAVISYHSTNKYYEDSVRGRFTISRDNSKNTLYLQMNSLRAEDTAVYYCARDAYSSSFFDFWGQGTLVTVSS VL: DIQMTQSPSTLSASVGDRVAITCRASQSISRWLAWYQQQPGKAPKLLMSGASVLESGVPSRFSGSGSGTEFTLTISSLQPDDFATYYCQHYNSYFVTFGQGTKVEIK | 43.9 nM | 43.6 nM | 28.2 nM | 0.703 nM | 0.734 nM |  |  | 2.35 nM | 246 nM |
| AB-007058 (antibody, V domains shown) VH: QMQLVESGGGVVQPGRSLRLSCTASGFTFSTYAMHWVRQSPGQGLQWVAVISYHSTNKYYEDSVRGRFTISRDNSKNTLYLQMNSLRAEDTAVYYCARDGYSTSFFDFWGQGTLVTVSS VL: DIQMTQSPSTLSASVGDRVAITCRASQSISRWLAWYQQQPGKAPKLLMSGASVLESGVPSRFSGSGSGTEFTLTISSLQPDDFATYYCQHYNSYFVTFGQGTKVEIK | 42.2 nM | 46.3 nM |  | 1.14 nM | 1.3 nM |  |  | 0.137 nM | 339 nM |
| AB-007065 (antibody, V domains shown) VH: QMQLVESGGGVVQPGRSLRLSCTASGFTFSTYAMHWVRQSPGQGLQWVAVISYHSTNKYYEDSVRGRFTISRDNSKNTLYLQMNSLRAEDTAVYYCARDGYSSSFFDFWGQGTLVTVSS VL: DIQMTQSPSTLSASVGDRVAITCRASQSISRWLAWYQQQPGKAPKLLMSKASVLESGVPSRFSGSGSGTEFTLTISSLQPDDFATYYCQHYNSYFVTFGQGTKVEIK | 9.71 nM | 9.73 nM | 15.8 nM | 0.729 nM | 2.23 nM | 12600 nM |  | 0.238 nM | 125 nM |
| AB-007048 (antibody, V domains shown) VH: QMQLVESGGGVVQPGRSLRLSCTASGFTFSTYSMHWVRQSPGQGLQWVAVISYHSTNKYYEDSVRGRFTISRDNSKNTLYLQMNSLRAEDTAVYYCARDGYSSSFFDFWGQGTLVTVSS VL: DIQMTQSPSTLSASVGDRVAITCRASQSISRWLAWYQQQPGKAPKLLMSGASVLESGVPSRFSGSGSGTEFTLTISSLQPDDFATYYCQHYNSYFVTFGQGTKVEIK | 34.6 nM | 28.6 nM |  | 1.46 nM | 3.33 nM |  |  | 1 nM | 1550 nM |
| AB-007055 (antibody, V domains shown) VH: QMQLVESGGGVVQPGRSLRLSCTASGFTFSTYAMHWVRQSPGQGLQWVAVISYHSTNKYYEDSVRGRFTISRDNSKNTLYLQMNSLRAEDTAVYYCARDGYTSSFFDFWGQGTLVTVSS VL: DIQMTQSPSTLSASVGDRVAITCRASQSISRWLAWYQQQPGKAPKLLMSGASVLESGVPSRFSGSGSGTEFTLTISSLQPDDFATYYCQHYNSYFVTFGQGTKVEIK |  |  |  | 1.61 nM | 3.62 nM |  |  | 0.403 nM | 1470 nM |
| AB-007059 (antibody, V domains shown) VH: QMQLVESGGGVVQPGRSLRLSCTASGFTFSTYAMHWVRQSPGQGLQWVAVISYHSTNKYYEDSVRGRFTISRDNSKNTLYLQMNSLRAEDTAVYYCARDGYSSTFFDFWGQGTLVTVSS VL: DIQMTQSPSTLSASVGDRVAITCRASQSISRWLAWYQQQPGKAPKLLMSGASVLESGVPSRFSGSGSGTEFTLTISSLQPDDFATYYCQHYNSYFVTFGQGTKVEIK | 19.8 nM | 17.4 nM | 25.8 nM | 1.41 nM | 0.478 nM | 17500 nM |  | 0.266 nM | 174 nM |
| AB-007066 (antibody, V domains shown) VH: QMQLVESGGGVVQPGRSLRLSCTASGFTFSTYAMHWVRQSPGQGLQWVAVISYHSTNKYYEDSVRGRFTISRDNSKNTLYLQMNSLRAEDTAVYYCARDGYSSSFFDFWGQGTLVTVSS VL: DIQMTQSPSTLSASVGDRVAITCRASQSISRWLAWYQQQPGKAPKLLMSQASVLESGVPSRFSGSGSGTEFTLTISSLQPDDFATYYCQHYNSYFVTFGQGTKVEIK | 22.4 nM | 26.6 nM |  | 0.315 nM | 3.58 nM |  |  | 0.979 nM | 357 nM |
| AB-007069 (antibody, V domains shown) VH: QMQLVESGGGVVQPGRSLRLSCTASGFTFSTYAMHWVRQSPGQGLQWVAVISYHSTNKYYEDSVRGRFTISRDNSKNTLYLQMNSLRAEDTAVYYCARDGYSSSFFDFWGQGTLVTVSS VL: DIQMTQSPSTLSASVGDRVAITCRASQSISRWLAWYQQQPGKAPKLLMSVASVLESGVPSRFSGSGSGTEFTLTISSLQPDDFATYYCQHYNSYFVTFGQGTKVEIK | 28.7 nM | 27.5 nM | 26.6 nM | 1.33 nM | 1.43 nM |  |  | 1.85 nM | 204 nM |
| AB-007067 (antibody, V domains shown) VH: QMQLVESGGGVVQPGRSLRLSCTASGFTFSTYAMHWVRQSPGQGLQWVAVISYHSTNKYYEDSVRGRFTISRDNSKNTLYLQMNSLRAEDTAVYYCARDGYSSSFFDFWGQGTLVTVSS VL: DIQMTQSPSTLSASVGDRVAITCRASQSISRWLAWYQQQPGKAPKLLMSSASVLESGVPSRFSGSGSGTEFTLTISSLQPDDFATYYCQHYNSYFVTFGQGTKVEIK | 34 nM | 36.1 nM |  | 0.647 nM | 2.02 nM |  |  | 0.244 nM | 207 nM |
| AB-007050 (antibody, V domains shown) VH: QMQLVESGGGVVQPGRSLRLSCTASGFTFSTYAMHWVRQSPGQGLQWVAVISQHSTNKYYEDSVRGRFTISRDNSKNTLYLQMNSLRAEDTAVYYCARDGYSSSFFDFWGQGTLVTVSS VL: DIQMTQSPSTLSASVGDRVAITCRASQSISRWLAWYQQQPGKAPKLLMSGASVLESGVPSRFSGSGSGTEFTLTISSLQPDDFATYYCQHYNSYFVTFGQGTKVEIK | 33.4 nM | 37.4 nM |  | 0.856 nM | 1.05 nM |  |  | 0.54 nM | 271 nM |
| AB-007068 (antibody, V domains shown) VH: QMQLVESGGGVVQPGRSLRLSCTASGFTFSTYAMHWVRQSPGQGLQWVAVISYHSTNKYYEDSVRGRFTISRDNSKNTLYLQMNSLRAEDTAVYYCARDGYSSSFFDFWGQGTLVTVSS VL: DIQMTQSPSTLSASVGDRVAITCRASQSISRWLAWYQQQPGKAPKLLMSLASVLESGVPSRFSGSGSGTEFTLTISSLQPDDFATYYCQHYNSYFVTFGQGTKVEIK | 17.1 nM | 18.3 nM | 21.8 nM | 1.59 nM | 0.703 nM | 32400 nM |  | 1.56 nM | 111 nM |
